Changes are numbered by the printed parent chain.
B1: 3F11 (anti-huSOX2 VHH antibody) (VHH)
VHH: DVQLVESGGGLVQPGGSLRLSCATSGFTFSSSTMSWVRQVPGAGPEWVAVDNPGGKKNYIDSVAGRFTIARDNDANSLSLVMNGLRPEDTARYFCARVLSFKIYEGDKWALEWDYRGPGTQVTVSS
notes: Selected from a naive sdAb phage display library (Genscript Probio)
B2: 1C4 (anti-huSOX2 VHH antibody clone) (VHH)
VHH: EVQLVESGGGLVQPGGSLRLSCAASGGGFRGNAVMGWFRQAPGKERELVAAIRGSGEDTYYADSVKGRFTISADNSKNTAYLQMNSLKPEDTAVYYCAGGWRRGYFQDWGQGTLVTVSS
notes: Clone from the VHH phage library panning; tested as individual colony in ELISA screening
B3: 1B9 (anti-huSOX2 VHH antibody clone) (VHH)
VHH: EVQLVESGGGLVQPGGSLRLSCAASGLTFSTYSMGWFRQAPGKEREFVAAITWNSGRRTYYADSVKGRFTISADNSKNTAYLQMNSLKPEDTAVYYCASRVDDRVWGQGTLVTVSS
notes: as for B2
B4: 2E8 (anti-huSOX2 VHH antibody clone) (VHH)
VHH: EVQLVESGGGLVQPGGSLRLSCAASGFTLDYYGMGWFRQAPGKEREFVAAISRSGGSTVYADSVKGRFTISADNSKNTAYLQMNSLKPEDTAVYYCAREVVRGGINYWGQGTLVTVSS
notes: as for B2
B5: 1C2 (anti-huSOX2 VHH antibody clone) (VHH)
VHH: EVQLVESGGGLVQPGGSLRLSCAASGSTYTTYSMGWFRQAPGKEREFVAAIRWSGGTTYYADSVKGRFTISADNSKNTAYLQMNSLKPEDTAVYYCASRVDDRVWGQGTLVTVSS
notes: as for B2
B6: 1A5 (anti-huSOX2 VHH antibody clone) (VHH)
VHH: B5 VHH with A49G, R52H, T57R
notes: as for B2
B7: 1A11 (anti-huSOX2 VHH antibody clone) (VHH)
VHH: B5 VHH with R52H, T57G
notes: as for B2
B8: 1C11 (anti-huSOX2 VHH antibody clone) (VHH)
VHH: B5 VHH with A49G
notes: as for B2
B9: 1A9 (anti-huSOX2 VHH antibody clone) (VHH)
VHH: B5 VHH with S27R, Y29F, T30S, S54T, G55A
notes: as for B2
B10: 1C12 (anti-huSOX2 VHH antibody clone) (VHH)
VHH: B5 VHH with T57S, Y59H
notes: as for B2
B11: 3F11 with N-terminal NanoLuc tag (pNLF1-N-3F11), expressed in HEK293T cells (VHH)
VHH: B1 VHH
notes: NanoBRET donor construct; not shown: NanoLuc tag
B12: 3H9 with N-terminal NanoLuc tag (pNLF1-N-3H9), expressed in HEK293T cells (VHH)
VHH: QVQLVESGGEQVQPGSSLKLSCSVSGLMISGHAMSWVRQVPGAGPEWVAVDNPGGKKNYIDSVAGRFTIARDNDANSLSLVMNGLRPEDTARYFCARVLSFKIYGGDKWALEWDYRGPGTQVTVSS
notes: as for B11
B13: 2E8 with N-terminal NanoLuc tag (pNLF1-N-2E8), expressed in HEK293T cells (VHH)
VHH: B4 VHH
notes: as for B11
B14: 3A2.005 (Flag-tag - 3A2 - GS linker - SPOP 167-374) (other)
chain: DYKDDDDKTREVQLVESGGEQVQPGSSLKLSCSVSGLMISGHAMSWVRQVPGAGPEWVAVDNPGGKKNYIDSVAGRFTIARDNDANSLSLVMNGLRPEDTARYFCARVLSFKIYEGDKWALEWDYRGPGTQVTVSSGSSVNISGQNTMNMVKVPECRLADELGGLWENSRFTDCCLCVAGQEFQAHKAILAARSPVFSAMFEHEMEESKKNRVEINDVEPEVFKEMMCFIYTGKAPNLDKMADDLLAAADKYALERLKVMCEDALCSNLSVENAAEILILADLHSADQLKTQAVDFINYHASDVLETSGWKSMVVSHPHLVAEAYRSLASAQCPFLGPPRKRLKQS
B15: 3A2.007 (Flag-tag - 3A2 - GS linker - CHIP 128-303) (other)
chain: DYKDDDDKTREVQLVESGGEQVQPGSSLKLSCSVSGLMISGHAMSWVRQVPGAGPEWVAVDNPGGKKNYIDSVAGRFTIARDNDANSLSLVMNGLRPEDTARYFCARVLSFKIYEGDKWALEWDYRGPGTQVTVSSGSRLNFGDDIPSALRIAKKKRWNSIEERRIHQESELHSYLSRLIAAERERELEECQRNHEGDEDDSHVRAQQACIEAKHDKYMADMDELFSQVDEKRKKRDIPDYLCGKISFELMREPCITPSGITYDRKDIEEHLQRVGHFDPVTRSPLTQEQLIPNLAMKEVIDAFISENGWVEDY
B16: 3A2.011 (Flag-tag - TRIM21 2-85 - GS linker - 3A2) (other)
chain: DYKDDDDKTRASAARLTMMWEEVTCPICLDPFVEPVSIECGHSFCQECISQVGKGGGSVCPVCRQRFLLKNLRPNRQLANMVNNLKEISQEAREGSEVQLVESGGEQVQPGSSLKLSCSVSGLMISGHAMSWVRQVPGAGPEWVAVDNPGGKKNYIDSVAGRFTIARDNDANSLSLVMNGLRPEDTARYFCARVLSFKIYEGDKWALEWDYRGPGTQVTVSS
B17: 3A2.012 (Flag-tag - 3A2 - GS linker - RNF4 71-190) (other)
chain: DYKDDDDKTREVQLVESGGEQVQPGSSLKLSCSVSGLMISGHAMSWVRQVPGAGPEWVAVDNPGGKKNYIDSVAGRFTIARDNDANSLSLVMNGLRPEDTARYFCARVLSFKIYEGDKWALEWDYRGPGTQVTVSSGSDERRRPRRNARRLPQDHADSCVVSSDDEELSRDRDVYVTTHTPRNARDEGATGLRPSGTVSCPICMDGYSEIVQNGRLIVSTECGHVFCSQCLRDSLKNANTCPTCRKKINHKRYHPIYI

Each binder was assayed against T1, huSOX3 with C-terminal 6×His-tag, produced by Biointron (human, UniProt P41225 1-446) (assay: selection from a naive sdAb phage display library, three rounds of panning).
T1 sequence: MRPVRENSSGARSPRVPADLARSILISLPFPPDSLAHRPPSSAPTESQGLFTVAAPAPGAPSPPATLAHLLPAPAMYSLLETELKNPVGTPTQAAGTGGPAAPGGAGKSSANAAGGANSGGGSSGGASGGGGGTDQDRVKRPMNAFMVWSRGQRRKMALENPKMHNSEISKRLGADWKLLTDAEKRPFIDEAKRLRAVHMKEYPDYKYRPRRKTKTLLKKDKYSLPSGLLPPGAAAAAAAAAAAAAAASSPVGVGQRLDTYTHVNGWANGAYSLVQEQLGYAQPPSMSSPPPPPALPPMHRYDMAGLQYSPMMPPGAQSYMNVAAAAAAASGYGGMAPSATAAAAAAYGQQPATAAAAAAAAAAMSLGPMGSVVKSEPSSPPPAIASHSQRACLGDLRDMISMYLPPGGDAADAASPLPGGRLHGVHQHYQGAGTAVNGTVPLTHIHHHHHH

Binder	binding result
B1	no binding

What follows are binders tested against CynoSOX2 with C-terminal 6×His-tag, produced by Biointron (cyno, UniProt P48431 45-317 (human entry), limits assumed) in the same assay as above.
CynoSOX2 with C-terminal 6×His-tag, produced by Biointron, sequence (P48431 other isoform, or with tags, fused parts or gaps limits assumed): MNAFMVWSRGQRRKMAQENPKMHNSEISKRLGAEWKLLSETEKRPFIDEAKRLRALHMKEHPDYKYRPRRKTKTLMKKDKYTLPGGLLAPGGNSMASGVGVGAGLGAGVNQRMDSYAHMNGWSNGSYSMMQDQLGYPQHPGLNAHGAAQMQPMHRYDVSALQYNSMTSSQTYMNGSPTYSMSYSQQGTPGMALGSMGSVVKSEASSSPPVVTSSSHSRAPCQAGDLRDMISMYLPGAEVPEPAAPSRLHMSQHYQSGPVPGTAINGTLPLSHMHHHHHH

Binder	binding result
B1	binds

What follows are binders tested against T2, human SRY-box transcription factor 2 (huSOX2) with C-terminal 6×His-tag, produced by Biointron (human, UniProt P48431 1-317) in the same assay as above.
T2 construct: also called huSOX2 protein; biotinylated huSOX2 (Biointron)
T2 sequence (P48431 other isoform, or with tags, fused parts or gaps limits assumed): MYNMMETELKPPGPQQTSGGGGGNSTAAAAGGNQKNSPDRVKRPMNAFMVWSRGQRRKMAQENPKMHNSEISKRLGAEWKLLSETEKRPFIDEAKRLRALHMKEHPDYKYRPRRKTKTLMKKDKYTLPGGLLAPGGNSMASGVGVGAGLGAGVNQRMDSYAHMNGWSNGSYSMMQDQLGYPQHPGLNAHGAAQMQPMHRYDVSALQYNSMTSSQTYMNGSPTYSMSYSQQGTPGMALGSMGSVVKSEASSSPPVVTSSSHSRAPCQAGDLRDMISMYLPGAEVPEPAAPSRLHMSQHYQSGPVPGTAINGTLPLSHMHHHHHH

Binder	binding result
B1	binds

These binders were tested against T2, human SRY-box transcription factor 2 … (assay: 96-well ELISA screening of individual colonies, 20 ug/mL huSOX2).

Binder	binding result
B2	binds
B3	binds
B4	binds
B5	binds
B6	binds
B7	binds
B8	binds
B9	binds
B10	binds

Each binder was assayed against T3, huSOX2 protein with N-terminal Halo tag (pHTN vector), expressed in HEK293T cells (human, UniProt P48431 1-317, HaloTag 618 ligand bound to the Halo tag) (assay: NanoBRET in HEK293T cells, NanoLuc-VHH and Halo-huSOX2).
T3 construct: Expressed inside HEK293T cells (NanoBRET); not shown: Halo tag
T3 sequence (P48431 whole entry): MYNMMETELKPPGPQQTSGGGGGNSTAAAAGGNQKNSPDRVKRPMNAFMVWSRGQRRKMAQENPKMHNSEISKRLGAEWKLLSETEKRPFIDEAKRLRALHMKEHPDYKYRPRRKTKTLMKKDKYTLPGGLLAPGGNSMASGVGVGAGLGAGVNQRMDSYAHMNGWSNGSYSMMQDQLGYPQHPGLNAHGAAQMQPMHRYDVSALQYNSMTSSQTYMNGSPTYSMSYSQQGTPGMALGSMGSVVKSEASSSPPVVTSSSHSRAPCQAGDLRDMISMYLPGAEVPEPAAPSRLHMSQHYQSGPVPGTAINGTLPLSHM

Binder	binding result
B11	binds
B12	binds
B13	binds

What follows are binders tested against huSOX2.V5 (huSOX2 with a V5-tag at the C-terminus) (human, UniProt P48431 1-317) (assay: cell-based or functional assay).
huSOX2.V5 (huSOX2 with a V5-tag at the C-terminus), sequence (P48431 other isoform, or with tags, fused parts or gaps): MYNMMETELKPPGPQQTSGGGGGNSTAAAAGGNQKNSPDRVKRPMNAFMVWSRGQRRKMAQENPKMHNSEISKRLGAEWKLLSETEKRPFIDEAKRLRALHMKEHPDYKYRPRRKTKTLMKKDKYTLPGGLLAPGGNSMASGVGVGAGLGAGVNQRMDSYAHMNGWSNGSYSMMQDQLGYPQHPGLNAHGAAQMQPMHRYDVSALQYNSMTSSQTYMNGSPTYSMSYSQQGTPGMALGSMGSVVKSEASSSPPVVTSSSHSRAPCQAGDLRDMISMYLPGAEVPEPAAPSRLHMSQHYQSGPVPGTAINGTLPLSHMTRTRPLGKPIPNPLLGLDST

Binder	SOX2 degradation capability compared to the control group (Mock) (HEK-293 cells) [%]
B14	≥ 70
B15	≥ 70
B16	≥ 70
B17	≥ 70
